Test results from article PMC3660561, “Crystal Structure of DmdD, a Crotonase Superfamily Enzyme That Catalyzes the Hydration and Hydrolysis of Methylthioacryloyl-CoA” (PLoS ONE, 2013).
Substitutions are numbered along the chain they refer to. Numbers in names are those of the source.

B1: Ruegeria pomeroyi DmdD, wild type (enzyme)
chain: MTQDVTSGYSNLDLDLRDNGVCVVTLNRPDKRNALDVATIEELVTFFSTAHRKGVRAVVLTGAGDHFCAGLDLVEHWKADRSADDFMHVCLRWHEAFNKMEYGGVPIIAALRGAVVGGGLELASAAHLRVMDQSTYFALPEGQRGIFTGGGATIRVSDMIGKYRMIDMILTGRVYQGQEAADLGLAQYITEGSSFDKAMELADKIASNLPLTNFAICSAISHMQNMSGLDAAYAEAFVGGIVNTQPAARERLEAFANKTAARVRPNS
notes: DmdD (methylthioacryloyl-CoA hydratase) of Ruegeria pomeroyi, sub-cloned into pET26b; Hexamer (dimer of trimers); The C-terminal His-tag was not cleaved before crystallization; also called wild-type DmdD; free enzyme; not shown: His6, C-terminal, kept
B2: DmdD (Ruegeria pomeroyi DSS-3; E141A) (protein)
chain: B1 chain with E141A
notes: pET26b, C-terminal hexahistidine tag (not cleaved before crystallization), expressed in E. coli BL21(DE3) Star; homohexamer (dimer of trimers)
B3: Ruegeria pomeroyi DmdD E121A mutant (enzyme)
chain: B1 chain with E121A
notes: DmdD (methylthioacryloyl-CoA hydratase) of Ruegeria pomeroyi with the E121A mutation (QuikChange); crystals soaked with MTA-CoA or MMPA-CoA; PDB 4IZB is the wild-type parent; source: E. coli, purified following the same protocol as for the wild-type protein; not shown: His6, C-terminal, kept

Columns and labels:
[1] = substrate: CS/C=C/C(=O)SCCNC(=O)CCNC(=O)[C@H](O)C(C)(C)COP(=O)(O)OP(=O)(O)OC[C@H]1O[C@@H](n2cnc3c(N)ncnc32)[C@H](O)[C@@H]1OP(=O)(O)O; experiment: MeSH release by headspace gas chromatography; type: biochemical, Ruegeria pomeroyi; conditions: MeSH release (equivalent to hydration), 100 mM HEPES pH 7.4
Description: MeSH release by headspace gas chromatography on DmdD

purified protein [2] = substrate: C/C=C/C(=O)SCCNC(=O)CCNC(=O)[C@H](O)C(C)(C)COP(=O)(O)OP(=O)(O)OC[C@H]1O[C@@H](n2cnc3c(N)ncnc32)[C@H](O)[C@@H]1OP(=O)(O)O; experiment: purified protein; type: biochemical, Ruegeria pomeroyi; conditions: hydration, 100 mM HEPES pH 7.4
purified protein [3] = substrate: CC(O)CC(=O)SCCNC(=O)CCNC(=O)[C@H](O)C(C)(C)COP(=O)(O)OP(=O)(O)OC[C@H]1O[C@@H](n2cnc3c(N)ncnc32)[C@H](O)[C@@H]1OP(=O)(O)O; experiment: purified protein; type: biochemical, Ruegeria pomeroyi; conditions: CoA ester hydrolysis, 100 mM HEPES pH 7.4
purified protein [4] = substrate: CSCCC(=O)SCCNC(=O)CCNC(=O)[C@H](O)C(C)(C)COP(=O)(O)OP(=O)(O)OC[C@H]1O[C@@H](n2cnc3c(N)ncnc32)[C@H](O)[C@@H]1OP(=O)(O)O; experiment: purified protein; type: biochemical, Ruegeria pomeroyi; conditions: CoA ester hydrolysis, 100 mM HEPES pH 7.4
[5] = target: the molecule itself; experiment: crystal structure; wild-type DmdD free enzyme, 1.5 Å; space group P2(1)3, two monomers in the asymmetric unit, hexamer generated by the crystallographic 3-fold axis; crystals from 100 mM Tris pH 8.5, 25% PEG 3350, 200 mM NaCl, 20°C
[6] = target: the molecule itself; experiment: crystal structure; E121A mutant crystals soaked 48 h with 10 mM MTA-CoA or MMPA-CoA, 1.8 Å; space group P2(1)3, two monomers in the asymmetric unit

| Protein | Km [1] | kcat [1] | Km (purified protein [2]) | kcat (purified protein [2]) | Km (purified protein [3]) | kcat (purified protein [3]) | Km (purified protein [4]) | kcat (purified protein [4]) | stoichiometry N [5] | stoichiometry N [6] |
| --- | --- | --- | --- | --- | --- | --- | --- | --- | --- | --- |
| B1 | 9.4 ± 2.1 µM | 47 ± 3 s⁻¹ | 19.0 ± 3.1 µM | 42 ± 3 s⁻¹ | 119 ± 20 µM | 13.2 ± 1.6 s⁻¹ | 69.0 ± 16.4 µM | 0.9 ± 0.1 s⁻¹ | 6 |  |
| B2 | 63.3 ± 12.0 µM | 0.0036 ± 0.0004 s⁻¹ |  |  |  |  |  |  |  |  |
| B3 |  |  |  |  |  |  |  |  |  | 6 |
